PMC4715562

Target: Gp7-MyH7-1526-1571 (bacteriophage φ29 | human)
Assay: crystal structure

Question: How did the stoichiometry N turn out when Gp7-MyH7-1526-1571 (domain or fragment) was run?
Answer: 2
